Test [1] concerns the target SSTR2 Receptor (cloned somatostatin receptor). Put plainly: inhibition of radioligand binding to cloned SSTR2.
Test [2] concerns the target T1, µ-receptor (guinea pig ileum preparation) (guinea pig). Put plainly: cell-based or functional assay.
The target in test [3] is T1, µ-receptor (guinea pig ileum …). Briefly: cell-based or functional assay. This is another data set of the same source.

Positions of bridges follow the written chain, without caps; N, C: chain ends. Non-standard residues stand in square brackets, D forms with d. No end group written: not given here. AlaL = alanine half of a lanthionine (monosulfide) bridge

SSTR2 Receptor (cloned somatostatin receptor), sequence (P30875 whole entry): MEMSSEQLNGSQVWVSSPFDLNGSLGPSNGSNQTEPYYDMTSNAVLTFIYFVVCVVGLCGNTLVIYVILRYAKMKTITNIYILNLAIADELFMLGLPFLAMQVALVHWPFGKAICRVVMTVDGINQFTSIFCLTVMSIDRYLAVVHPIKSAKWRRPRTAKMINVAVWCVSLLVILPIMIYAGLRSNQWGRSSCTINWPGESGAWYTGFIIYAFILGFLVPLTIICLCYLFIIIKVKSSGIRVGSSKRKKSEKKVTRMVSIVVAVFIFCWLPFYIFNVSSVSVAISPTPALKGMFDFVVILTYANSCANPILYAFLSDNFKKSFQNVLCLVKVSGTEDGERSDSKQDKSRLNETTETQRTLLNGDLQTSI

B1: c[AlaL3, AlaL14]-Somatostatin-14 (peptide)
chain: AG[AlaL]KNFFWKTFTS[AlaL]
modifications: bridge 3-14; not fully specified (bridges); printed as c[AlaL3, AlaL14]-Somatostatin-14
By IC50 is commonly meant the concentration at which inhibition is half-maximal. Read a high IC50 as a need for much substance. B1: in test [1], the IC50 is 300 pM.

B2: Tyr-c[D-AlaL-Gly-Phe-L-AlaL]-NH2 (peptide)
peptide: Y[dAlaL]GF[AlaL]-NH2
modifications: bridge 2-5; not fully specified (bridges); printed as Tyr-c[D-AlaL-Gly-Phe-L-AlaL]-NH2
Consider B2, for which, in test [2], the “GPI IC50” value came to 620 pM. Further, in test [3], the “bioactivity at the GPI relative to [Leu^5]-enkephalin” value is 400 fold.

B3: Tyr-c[D-AlaL-Gly-Phe-L-AlaL]-OH (peptide)
peptide: Y[dAlaL]GF[AlaL]-OH
modifications: bridge 2-5; not fully specified (bridges); printed as Tyr-c[D-AlaL-Gly-Phe-L-AlaL]-OH
On to B3, for which, in test [2], the “GPI IC50” value came out at 450 pM.

Source of the values: patent US20020165132A1 (published 2002).
